# The RNAGym collection of RNA variant scans (doi:10.7554/elife.90254)
# B1: OR4K15 (parent)
# chain: GUUAACGGUCAUAGGCCAUGGAAACUAGGAGCACCAUUUCGCUGCCAGUGAAGAAAUGAACAAAGAAAAUCUGGGCCAGGCAGGCAUCAAAAGAAAUAGUCUUGCGCUCAACCAGAAAGUCUGUAAUCAUUUUAAGGGUA
# Variants of: B1
# Test: self-cleavage, relative activity (ratio to wild type); higher = more cleavage; in vitro, sequencing; the parent is a self-cleaving ribozyme
row,Variant,self-cleavage
1,A69U A140U,2.31
2,A69U U127C,1.46
3,A68U A125C,1.36
4,A68G A96U,2.13
5,A68G A96C,1.42
6,A67U G75A,0.06
7,C71A A117G,0.35
8,U70C A89U,1.17
9,U70C A89C,0.49
10,U70C A89G,0.58
11,U72C A89U,0.45
12,U70C A91G,0.6
13,A67G U102A,1.3
14,A67G U102C,1.56
15,A69G U130C,0.5
16,A69G U130G,1.3
17,A69G A117G,1.44
18,A69G A117U,0.97
19,U70C A111U,0.07
20,A68U A86G,1.44
21,A68U A117G,0.37
22,U70C A90G,0.83
23,U70A U139C,1.06
24,U70C U103C,0.56

row,Variant,self-cleavage
1,A69G U127C,0.82
2,A68G G75A,0.1
3,A67U,1.54
4,A68G A86C,0.72
5,A69G U100G,1.94
6,A69G U132C,1.56
7,A67G U97C,1.74
8,A67U U130A,1.56
9,A68U U127A,2.58
10,A68U U127C,0.82
11,A69G A118U,0.56
12,A68U U103A,0.3
13,U70C G106A,0.01
14,C71U A129G,0.08
15,A68U U108A,0.05
16,A68U A116G,1.07
17,A69G A95G,1.8
18,A67U U122A,1.36
19,A67U A69U,1.69
20,A69U A126U,0.72
21,A69C G84U,0.82
22,C71A U103C,0.11
23,A68C A110G,0.16
24,U70A U127A,2.27

row,Variant,self-cleavage
1,U70C A86G,0.86
2,U70A A135G,0.74
3,A69U A110G,0.09
4,A69G C71A,0.43
5,U72C A92G,0.21
6,A67G C113U,0.17
7,A67G U100C,2.32
8,U72A A114C,0.06
9,U72A A114U,1.94
10,A69G A90U,1.9
11,C71A A95G,0.88
12,U70C A129G,0.33
13,A67G U87A,1.28
14,A68C U130A,0.98
15,A68G C105U,0.14
16,A68G C112U,0.02
17,U72A A125G,0.05
18,A68U A92G,0.44
19,A68G A98G,0.16
20,A68G A98U,0.78
21,A67G U120A,1.38
22,A67G U70C,1.05
23,C71U U131C,0.25
24,A68G A94G,1.34

row,Variant,self-cleavage
1,A68G A94U,2.3
2,U70C A114G,0.12
3,U72A U127G,0.23
4,A68U U122C,1.51
5,A68G A117U,0.82
6,A68G A117G,2
7,A68U A140U,1.65
8,A69U U87A,1.79
9,A69G U108A,0.02
10,A67U A118G,1.4
11,A67G U103A,0.89
12,A67G U103G,0.05
13,U70G A82U,0.2
14,U70C A134G,0.72
15,A68U U87C,1.78
16,A68U U87G,0.38
17,U70C A117G,1.21
18,U72A A89G,0.36
19,U70C U139A,1.3
20,U70C U139C,0.7
21,U72A U139C,0.23
22,U72A U139A,0.24
23,A68U U97G,1.94
24,A69G C121A,2.02

row,Variant,self-cleavage
1,U70C U131A,0.45
2,A69G U131G,0.46
3,A68G U97C,1.3
4,U72A A94G,0.02
5,A67U A90G,1.72
6,U70G U97C,1.01
7,A68C U132C,1.61
8,A67G U132C,1.66
9,U70C G119A,1.49
10,U72C A78U,0.15
11,C71A U97C,0.18
12,A69G U97C,0.98
13,U70C A96G,0.75
14,U70A C121U,2.35
15,A69G A96U,1.85
16,A69G G73U,0.33
17,A68G A110U,1.49
18,A68G A110G,0.25
19,U72A C105U,0.04
20,A68G A140G,1.91
21,A68G G83A,1.73
22,A68G G84A,2.58
23,A68U U132G,0.9
24,U72A A111G,0.02

row,Variant,self-cleavage
1,C71U A114G,0.05
2,C71U A114U,0.06
3,U70A C105U,0.16
4,U70C U102C,1.57
5,A68G A111U,0.21
6,U72A A110G,0.06
7,U72A A110U,0.29
8,A68G A92G,1.55
9,A68G A92C,1.7
10,A68U A89G,1.53
11,A69U A82G,0.63
12,A69U A82U,0.04
13,A69G U124C,1.11
14,A69U U103A,1.87
15,A69U A91G,1.79
16,U70C U120C,0.25
17,U70C U120A,0.8
18,A69U U132C,1.11
19,A67G G106A,0.02
20,U70A U108C,0.01
21,A68C U127G,2.01
22,A68U A96G,1.98
23,U72A A82C,0.35
24,U72A U120A,0.17

row,Variant,self-cleavage
1,A69G G79U,0.1
2,A68G U102C,1.9
3,U70G U103C,1.08
4,A67G G80A,0.04
5,U70G U127C,0.57
6,A69U A78G,0.32
7,A68G U132C,1.38
8,A68G U132A,1.27
9,A68U U100C,2.4
10,A69G A98G,0.49
11,A69G A98U,1.35
12,U70C A92G,0.82
13,U72A A78G,0.05
14,A69G C109A,0.37
15,A69U U100C,2.44
16,A69G A78U,0.33
17,A67G U124A,0.87
18,A67G U124G,1.24
19,A69G C81A,0.15
20,A69U U120A,1.84
21,U70C A116U,0.34
22,U70C A116G,1.52
23,U70C C107U,0.02
